Assay results taken from PMC11122373, “Structure-Based De Novo Design for the Discovery of Miniprotein Inhibitors Targeting Oncogenic Mutant BRAF” (International Journal of Molecular Sciences, 2024).
Changes are numbered by the printed parent chain.

B1: miniprotein 63 (designed binder)
chain: SIVGQGAQQMLVSKIKCTVANEWLDRSMLTSKFAMFVLLNEIDMLDIMLEAMGISLLEDREHQTRRVNY
notes: de novo designed miniprotein of three helices and 69 amino acids; scaffold from residues 164-232 of 14-3-3, all 69 residues allowed to mutate; Cloned into pMAL-c5x (NdeI, EcoRI) with C-terminal Myc tag; source: E. coli BL21(DE3), purified (MBPTrap HP column); not shown: MBP, N-terminal, kept; Myc, C-terminal, kept
B2: miniprotein 76 (designed binder)
chain: B1 chain with V3Q, Q8R, M10C, I15L, S27W, L56I, L57E
notes: as for B1
B3: miniprotein 94 (designed binder)
chain: PCVWTGFREFKGGQRGKERLAMCEDLMCEADWWGGNQNRDRGSIFTRVKGSGALGKISIAERGARNNAV
notes: de novo designed miniprotein of three helices and 69 amino acids; scaffold from residues 164-232 of 14-3-3, all 69 residues allowed to mutate; Cloned into pMAL-c5x with C-terminal Myc tag; source: E. coli BL21(DE3), purified (MBPTrap HP column); not shown: MBP, N-terminal, kept; Myc, C-terminal, kept

Target: T1, V600E mutant BRAF^15mut (BRAF kinase domain with 15 solubilizing mutations and V600E) (UniProt P15056 444-723, I543A | I544S | I551K | Q562R | L588N | K630S | Y673S | A688R | L706S | Q709R | …)
T1 construct: BRAF kinase domain, residues 444-723 of UniProt P15056, with 15 solubilizing mutations (Phe667 kept intact) and V600E; Cloned into pET-32a (NdeI, XhoI) with N-terminal MBP; also called VRAF murine sarcoma viral oncogene homologue B1 kinase domain; source: E. coli BL21(DE3), purified (MBPTrap HP column)
T1 sequence (P15056 other isoform, or with tags, fused parts or gaps with the stated changes): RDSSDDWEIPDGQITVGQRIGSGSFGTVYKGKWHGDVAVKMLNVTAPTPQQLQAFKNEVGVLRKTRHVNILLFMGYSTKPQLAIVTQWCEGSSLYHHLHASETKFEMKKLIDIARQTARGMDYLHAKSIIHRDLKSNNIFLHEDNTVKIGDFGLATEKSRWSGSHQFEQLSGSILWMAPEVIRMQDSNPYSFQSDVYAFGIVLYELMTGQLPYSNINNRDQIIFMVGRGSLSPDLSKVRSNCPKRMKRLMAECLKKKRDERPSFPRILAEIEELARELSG
Assay: ELISA; 10 ug/mL V600E mutant BRAF^15mut coated in a 96-well plate; blocked with 5% skim milk in 20 mM Tris-HCl pH 7.5, 150 mM NaCl; purified Myc-tagged proteins (MEK1, MBP, miniproteins) added at 0, 200 and 2000 nM; detected with anti-c-Myc antibody and HRP-conjugated anti-mouse IgG, TMB, absorbance at 450 nm; triplicate
Settings: both partners purified

Binder	binding result
B1	binds
B2	binds
B3	binds
